Molecular target: thyroglobulin of normal mice (mouse (endogenous in thyroid tissue)) (UniProt O08710)
Assay: native gel or EMSA

stoichiometry N: 2
Substance: thyroglobulin of normal mice, O08710 21-2766

Source: PMC2120816
